{
  "source": "patent US7087215B2",
  "about": "(priority 1998, dated 2006)",
  "key": {"[1]": {"assay": "Plasma insulin levels by RIA method after injection or mouth spray in diabetic volunteers", "assay_type": "in vivo, human", "procedure": "(§1) Ten diabetic volunteers were asked to fast overnight and not have any breakfast prior to dosing. On the first day, the volunteers were given 10 units insulin by injection (regular fast acting insulin, obtained from Eli Lilly). On the second day, the volunteers were given 60 units insulin of this example (10 puffs of 6 units each) into the mouth, without inhalation. Plasma insulin levels were measured at intervals by the RIA method for 3 hours. Blood glucose levels were also monitored at intervals using Bayer's glucometer Elite for 3 hours.\n(§2) Tests were also conducted with 40 units of spray at 10 puffs each, and compared to 10 units injected by measuring plasma levels and glucose levels as above. The results are shown in Table 7 (plasma) and 8 (glucose).\nas §1, with “injection.” for “injection (regular fast acting insulin, obtained from Eli Lilly).”\n(§3) On the first day, each patient had 7 units regular fast acting insulin, obtained from Eli Lilly, administered by injection. On the second day, each patient was given 70 units of the insulin formulation of this Example (7 puffs of 10 unit each) into the mouth, without inhalation. Blood samples were collected and plasma glucose levels were measured at intervals using Bayer's glucometer Elite for 3 hours. Insulin levels were also monitored at intervals by the RIA method for 3 hours."}, "[2]": {"tested_on": "blood glucose levels", "assay": "Blood glucose levels by Bayer's glucometer Elite after injection or mouth spray in fasted diabetic volunteers", "assay_type": "in vivo, human", "procedure": "as §1, §2\nas §1, with “injection.” for “injection (regular fast acting insulin, obtained from Eli Lilly).”\nas §3"}, "[3]": {"conditions": "time 0 min, insulin 10 units by injection, Example 2 60 units by mouth spray, average of ten fasted diabetic volunteers"}, "[4]": {"conditions": "time 0 min, insulin 10 units by injection, Example 3 60 units by mouth spray, average of ten fasted diabetic volunteers"}, "[5]": {"conditions": "time 0 min, insulin 10 units injected, Example 2 40 units of spray, measured as above"}, "[6]": {"conditions": "time 15 min, insulin 10 units by injection, Example 2 60 units by mouth spray, average of ten fasted diabetic volunteers"}, "[7]": {"conditions": "time 15 min, insulin 10 units by injection, Example 3 60 units by mouth spray, average of ten fasted diabetic volunteers"}, "[8]": {"conditions": "time 15 min, insulin 10 units injected, Example 2 40 units of spray, measured as above"}, "[9]": {"conditions": "time 30 min, insulin 10 units by injection, Example 2 60 units by mouth spray, average of ten fasted diabetic volunteers"}, "[10]": {"conditions": "time 30 min, insulin 10 units by injection, Example 3 60 units by mouth spray, average of ten fasted diabetic volunteers"}, "[11]": {"conditions": "time 30 min, insulin 10 units injected, Example 2 40 units of spray, measured as above"}, "[12]": {"conditions": "time 45 min, insulin 10 units by injection, Example 2 60 units by mouth spray, average of ten fasted diabetic volunteers"}, "[13]": {"conditions": "time 45 min, insulin 10 units by injection, Example 3 60 units by mouth spray, average of ten fasted diabetic volunteers"}, "[14]": {"conditions": "time 60 min, insulin 10 units by injection, Example 2 60 units by mouth spray, average of ten fasted diabetic volunteers"}, "[15]": {"conditions": "time 60 min, insulin 10 units by injection, Example 3 60 units by mouth spray, average of ten fasted diabetic volunteers"}, "[16]": {"conditions": "time 60 min, insulin 10 units injected, Example 2 40 units of spray, measured as above"}, "[17]": {"conditions": "time 90 min, insulin 10 units by injection, Example 2 60 units by mouth spray, average of ten fasted diabetic volunteers"}, "[18]": {"conditions": "time 90 min, insulin 10 units by injection, Example 3 60 units by mouth spray, average of ten fasted diabetic volunteers"}, "[19]": {"conditions": "time 90 min, insulin 10 units injected, Example 2 40 units of spray, measured as above"}, "[20]": {"conditions": "time 120 min, insulin 10 units by injection, Example 2 60 units by mouth spray, average of ten fasted diabetic volunteers"}, "[21]": {"conditions": "time 120 min, insulin 10 units by injection, Example 3 60 units by mouth spray, average of ten fasted diabetic volunteers"}, "[22]": {"conditions": "time 120 min, insulin 10 units injected, Example 2 40 units of spray, measured as above"}, "[23]": {"conditions": "time 150 min, insulin 10 units by injection, Example 2 60 units by mouth spray, average of ten fasted diabetic volunteers"}, "[24]": {"conditions": "time 150 min, insulin 10 units by injection, Example 3 60 units by mouth spray, average of ten fasted diabetic volunteers"}, "[25]": {"conditions": "time 150 min, insulin 10 units injected, Example 2 40 units of spray, measured as above"}, "[26]": {"conditions": "time 180 min, insulin 10 units by injection, Example 2 60 units by mouth spray, average of ten fasted diabetic volunteers"}, "[27]": {"conditions": "time 180 min, insulin 10 units by injection, Example 3 60 units by mouth spray, average of ten fasted diabetic volunteers"}, "[28]": {"conditions": "time 180 min, insulin 10 units injected, Example 2 40 units of spray, measured as above"}},
  "data": [
    {"substance": "insulin", "values": [
      {"measurement": "Plasma insulin level", "setting": "[1]; [3]", "result": 10, "unit": "micromoles per ml"},
      {"measurement": "Plasma insulin level", "setting": "[1]; [4]", "result": 9, "unit": "micromoles per ml"},
      {"measurement": "Plasma insulin level", "setting": "[1]; [5]", "result": 9, "unit": "micromoles per ml"},
      {"measurement": "Plasma insulin level", "setting": "[1]; [6]", "result": 9.1, "unit": "micromoles per ml"},
      {"measurement": "Plasma insulin level", "setting": "[1]; [7]", "result": 9.1, "unit": "micromoles per ml"},
      {"measurement": "Plasma insulin level", "setting": "[1]; [8]", "result": 9, "unit": "micromoles per ml"},
      {"measurement": "Plasma insulin level", "setting": "[1]; [9]", "result": 11, "unit": "micromoles per ml"},
      {"measurement": "Plasma insulin level", "setting": "[1]; [10]", "result": 14, "unit": "micromoles per ml"},
      {"measurement": "Plasma insulin level", "setting": "[1]; [11]", "result": 13, "unit": "micromoles per ml"},
      {"measurement": "Plasma insulin level", "setting": "[1]; [12]", "result": 16, "unit": "micromoles per ml"},
      {"measurement": "Plasma insulin level", "setting": "[1]; [13]", "result": 20, "unit": "micromoles per ml"},
      {"measurement": "Plasma insulin level", "setting": "[1]; time 45 min, insulin 10 units injected, Example 2 40 units of spray, measured as above", "result": 19, "unit": "micromoles per ml"},
      {"measurement": "Plasma insulin level", "setting": "[1]; [14]", "result": 31, "unit": "micromoles per ml"},
      {"measurement": "Plasma insulin level", "setting": "[1]; [15]", "result": 40, "unit": "micromoles per ml"},
      {"measurement": "Plasma insulin level", "setting": "[1]; [16]", "result": 34, "unit": "micromoles per ml"},
      {"measurement": "Plasma insulin level", "setting": "[1]; [17]", "result": 45, "unit": "micromoles per ml"},
      {"measurement": "Plasma insulin level", "setting": "[1]; [18]", "result": 48, "unit": "micromoles per ml"},
      {"measurement": "Plasma insulin level", "setting": "[1]; [19]", "result": 45, "unit": "micromoles per ml"},
      {"measurement": "Plasma insulin level", "setting": "[1]; [20]", "result": 32, "unit": "micromoles per ml"},
      {"measurement": "Plasma insulin level", "setting": "[1]; [21]", "result": 39, "unit": "micromoles per ml"},
      {"measurement": "Plasma insulin level", "setting": "[1]; [22]", "result": 42, "unit": "micromoles per ml"},
      {"measurement": "Plasma insulin level", "setting": "[1]; [23]", "result": 25, "unit": "micromoles per ml"},
      {"measurement": "Plasma insulin level", "setting": "[1]; [24]", "result": 34, "unit": "micromoles per ml"},
      {"measurement": "Plasma insulin level", "setting": "[1]; [25]", "result": 35, "unit": "micromoles per ml"},
      {"measurement": "Plasma insulin level", "setting": "[1]; [26]", "result": 20, "unit": "micromoles per ml"},
      {"measurement": "Plasma insulin level", "setting": "[1]; [27]", "result": 27, "unit": "micromoles per ml"},
      {"measurement": "Plasma insulin level", "setting": "[1]; [28]", "result": 24, "unit": "micromoles per ml"},
      {"measurement": "Blood glucose level", "setting": "[2]; [3]", "result": 6.1, "unit": "millimoles per liter"},
      {"measurement": "Blood glucose level", "setting": "[2]; [4]", "result": 6.6, "unit": "millimoles per liter"},
      {"measurement": "Blood glucose level", "setting": "[2]; [5]", "result": 5.8, "unit": "millimoles per liter"},
      {"measurement": "Blood glucose level", "setting": "[2]; [6]", "result": 6.0, "unit": "millimoles per liter"},
      {"measurement": "Blood glucose level", "setting": "[2]; [7]", "result": 6.5, "unit": "millimoles per liter"},
      {"measurement": "Blood glucose level", "setting": "[2]; [8]", "result": 6.0, "unit": "millimoles per liter"},
      {"measurement": "Blood glucose level", "setting": "[2]; [9]", "result": 5.9, "unit": "millimoles per liter"},
      {"measurement": "Blood glucose level", "setting": "[2]; [10]", "result": 6.1, "unit": "millimoles per liter"},
      {"measurement": "Blood glucose level", "setting": "[2]; [11]", "result": 5.9, "unit": "millimoles per liter"},
      {"measurement": "Blood glucose level", "setting": "[2]; [12]", "result": 5.5, "unit": "millimoles per liter"},
      {"measurement": "Blood glucose level", "setting": "[2]; [13]", "result": 5.5, "unit": "millimoles per liter"},
      {"measurement": "Blood glucose level", "setting": "[2]; [14]", "result": 5.1, "unit": "millimoles per liter"},
      {"measurement": "Blood glucose level", "setting": "[2]; [15]", "result": 4.9, "unit": "millimoles per liter"},
      {"measurement": "Blood glucose level", "setting": "[2]; [16]", "result": 5.5, "unit": "millimoles per liter"},
      {"measurement": "Blood glucose level", "setting": "[2]; [17]", "result": 4.5, "unit": "millimoles per liter"},
      {"measurement": "Blood glucose level", "setting": "[2]; [18]", "result": 4.5, "unit": "millimoles per liter"},
      {"measurement": "Blood glucose level", "setting": "[2]; [19]", "result": 5.0, "unit": "millimoles per liter"},
      {"measurement": "Blood glucose level", "setting": "[2]; [20]", "result": 3.8, "unit": "millimoles per liter"},
      {"measurement": "Blood glucose level", "setting": "[2]; [21]", "result": 3.8, "unit": "millimoles per liter"},
      {"measurement": "Blood glucose level", "setting": "[2]; [22]", "result": 4.5, "unit": "millimoles per liter"},
      {"measurement": "Blood glucose level", "setting": "[2]; [23]", "result": 4.2, "unit": "millimoles per liter"},
      {"measurement": "Blood glucose level", "setting": "[2]; [24]", "result": 3.5, "unit": "millimoles per liter"},
      {"measurement": "Blood glucose level", "setting": "[2]; [25]", "result": 4.1, "unit": "millimoles per liter"},
      {"measurement": "Blood glucose level", "setting": "[2]; [26]", "result": 4.4, "unit": "millimoles per liter"},
      {"measurement": "Blood glucose level", "setting": "[2]; [27]", "result": 4.4, "unit": "millimoles per liter"},
      {"measurement": "Blood glucose level", "setting": "[2]; [28]", "result": 3.9, "unit": "millimoles per liter"}
    ]}
  ]
}
